Data reported in patent US20240282401A1, “METHODS FOR ENZYME ENGINEERING” (The University of Manchester, priority 2021, published 2024).
Where a chain is given by its changes, count along the chain named. Names may count otherwise.

B1: D3: HDNO D2 plus N414H (E350L/E352D/N414H), SEQ ID NO: 4 (protein)
chain: MVSSKLATPLSIQGEVIYPDDSGFDAIANIWDGRHLQRPSLIARCLSAGDVAKSVRYACDNGLEISVRSGGHNPNGYATNDGGIVLDLRLMNSIHIDTAGSRARIGGGVISGDLVKEAAKFGLAAVTGMHPKVGFCGLALNGGVGFLTPKYGLASDNILGATLVTATGDVIYCSDDERPELFWAVRGAGPNFGVVTEVEVQLYELPRKMLAGFITWAPSVSELAGLLTSLLDALNEMADHIYPSVFVGVDENRAPSVTVCVGHLGGLDIAERDIARLRGLGRTVSDSIAVRSYDEVVALNAEVGSFEDGMSNLWIDREIAMPNARFAEAIAGNLDKFVSEPASGGSVKLLIDGMPFGNPKRTPARHRDAMGVLALAEWSGAAPGSEKYPELARELDAALLRAGVTTSGFGLLNHNSEVTAEMVAEVYKPEVYSRLAAVKREYDPENRFRHNYNIDPEGS
modifications: HDNO D3
B2: D2: 6-hydroxy-D-nicotine oxidase from Arthrobacter nicotinovorans with E350L/E352D, SEQ ID NO: 2 (protein)
chain: B1 chain with H414N
modifications: HDNO D2
B3: N336S: evolved monoamine oxidase (MAO-N) variant N336S (protein, UniProt P46882 1-495, looked up, variant N336S)
Monoamine oxidase N: MTSRDGYQWTPETGLTQGVPSLGVISPPTNIEDTDKDGPWDVIVIGGGYCGLTATRDLTVAGFKTLLLEARDRIGGRSWSSNIDGYPYEMGGTWVHWHQSHVWREITRYKMHNALSPSFNFSRGVNHFQLRTNPTTSTYMTHEAEDELLRSALHKFTNVDGTNGRTVLPFPHDMFYVPEFRKYDEMSYSERIDQIRDELSLNERSSLEAFILLCSGGTLENSSFGEFLHWWAMSGYTYQGCMDCLISYKFKDGQSAFARRFWEEAAGTGRLGYVFGCPVRSVVNERDAARVTARDGREFAAKRLVCTIPLNVLSTIQFSPALSTERISAMQAGHVSMCTKVHAEVDNKDMRSWTGIAYPFNKLCYAIGDGTTPAGNTHLVCFGTDANHIQPDEDVRETLKAVGQLAPGTFGVKRLVFHNWVKDEFAKGAWFFSRPGMVSECLQGLREKHRGVVFANSDWALGWRSFIDGAIEEGTRAARVVLEELGTKREVKARL
B4: N336S/1246M: evolved monoamine oxidase (MAO-N) variant (protein, UniProt P46882 1-495, looked up, variant N336S I246M)
Monoamine oxidase N: B3 Monoamine oxidase N with I246M

Columns and labels:
[1] = Kinetic parameters by HRP-ABTS assay; format: biochemical; settings: oxidation of 2-phenylpyrrolidine, 30° C., pH 8
Protocol: Kinetic parameters of different HDNO variants were determined using the ABTS-HRP assay. Samples of 20 μL of substrate at different concentrations in DMSO (0.05 mM-10 mM, 10% DMSO final concentration) was diluted in 130 μL of reacting solution which contained 0.2 mg ml^−1 HRP (IV, Sigma) and 0.4 mg ml^−1 ABTS in 100 mM pH 8 NaPi buffer. The assay was started by adding 50 μL purified enzyme (typically 0.1-2 mg ml^−1 concentration). Production of the reduced ABTS was measured using a Tecan infinite M200 microplate reader (Tecan Group Limited, Mannedorf, Switzerland) at 420 nm (E=36 mM^−1 cm^−1) and 30° C. for 10 min. Measurements were made in triplicate and a 1:1 ratio for the oxidation of substrate to the production of hydrogen peroxide was assumed. Rate was plotted against substrate concentration and Vmax and KM values extracted using non-linear regression analysis with a fit to the Michaelis-Menten equation using Prism software (GraphPad Software, San Diego, CA). Protein concentrations for kinetic parameters were determined using the Bradford assay following supplier's instructions using bovine serum albumin (BSA) standards for calibration (Merck Life Science UK Limited, Gillingham).

[2] = Biotransformation of methylbenzylamine by purified HDNO variants; format: biochemical
Protocol: (§1) Chiral normal phase HPLC was performed on an Agilent HPLC system (G1379A degasser, G1312A binary pump, a G1367A well plate autosampler unit, a G1316A temperature-controlled column compartment and a G1315C diode array detector) (Agilent Technologies Inc., Santa Clara, CA) equipped with a CHIRALCEL OD-H (250 mm length, 4.6 mm diameter, 5 μm particle size) analytical column (Daicel Corp., Osaka, Japan). The typical injection volume was 10 μL and chromatograms were monitored at 265 nm. Gas chromatographic (GC) analysis was performed on an Agilent 6850 GC (Agilent Technologies Inc., Santa Clara, CA) with a flame ionization detector and autosampler equipped with a HP-1 column of length 30 m, 0.32 mm inner diameter and 0.25 μm film thickness (Agilent Technologies Inc., Santa Clara, CA).
(§2) A typical 500 μL reaction mixture in a 2 mL tube contained 10 mM amine, 0.05 to 1 mg mL^−1 of purified HDNO variant in pH 8 100 mM NaPi buffer. […] The organic fractions were combined and dried over anhydrous MgSO4 and analysed by GC-FID (conversions) or HPLC (enantiomeric ratios) on a chiral stationary phase (see Chromatography section for details). Turnover frequencies (TOF, min^−1) were calculated as the moles of product formed/moles of enzyme min^−1 based on conversions obtained by GC-FID analysis (see Chromatography method). […]

[3] = Thermal stability: residual activity after incubation at 45° C. or 50° C. (GC); format: physicochemical; settings: 60 min
Protocol: A subset of mutants was selected and inserted into the HDNO D3 and D6 variants by site directed mutagenesis either alone or in pairs to also check for interactions that would further stabilise the enzyme. Namely, D3-K208E, D6-K208E, D6-R207E, D6-K282E, D6-K428E and D6-K208E/K282E mutant proteins were expressed and purified (as described below) and incubated at elevated temperatures (45° C. or 50° C. for 1 h for D6 variants) using a constant temperature water bath incubator. Aliquots were taken every 15 min and activities were measured by biotransformation and gas chromatography (as described below). The % residual activity corresponds to the ratio between the activity observed after incubation at each specified time over the activity of the enzyme without any thermal treatment.
as §2

[4] = Biotransformation of PPY by purified HDNO variants (GC-FID, chiral HPLC); format: biochemical; settings: for rate / activity increase towards PPY oxidation versus HDNO D2: biotransformation measurements
Protocol: as §1
A typical 500 μL reaction mixture in a 2 mL tube contained 10 mM amine, 0.05 to 1 mg mL^−1 of purified HDNO variant in pH 8 100 mM NaPi buffer. Reactions were incubated at 30° C. with 250 r.p.m shaking for different reaction times, after which they were quenched by the addition of 50 μL of 10 M NaOH and extracted twice with 500 μL tert-butyl methyl ether (HPLC grade, Merck Life Science UK Limited, Gillingham). The organic fractions were combined and dried over anhydrous MgSO4 and analysed by GC-FID (conversions) or HPLC (enantiomeric ratios) on a chiral stationary phase (see Chromatography section for details). Turnover frequencies (TOF, min^−1) were calculated as the moles of product formed/moles of enzyme min^−1 based on conversions obtained by GC-FID analysis (see Chromatography method). The same response factor was considered for both substrate and product.

[5] = MAO-N variants, (S)-enantiomer of PPY, ref [104]; cited from earlier work

| Molecule | Km [1] [µM] | kcat [1] [s⁻¹] | reported kcat [5] [s⁻¹] | also measured |
| --- | --- | --- | --- | --- |
| B1 | 490 ± 140 | 0.71 ± 0.05 |  | activity to methylbenzylamine lower than in HDNO D6 [2]: about 20%; residual activity [3]: 62%; rate / activity increase towards PPY oxidation versus HDNO D2 ([4]; listed as 6-HDNO D3): 1.7 fold; rate / activity increase towards PPY oxidation versus HDNO D2 ([4]; listed as HDNO D3): almost twofold increase; enantioselectivity of PPY oxidation ([4]; chiral HPLC): completely selective towards the oxidation of the (R)-enantiomer |
| B2 | 1060 ± 440 | 0.50 ± 0.06 |  |  |
| B3 |  |  | 2.50 |  |
| B4 |  |  | 2.13 |  |
